In PMC5797217, “UFD-2 is an adaptor-assisted E3 ligase targeting unfolded proteins” (Nature Communications, 2018):

Tests used:
[1] = biological target: T1, UNC-45 full-length, His6-tagged (C. elegans, UniProt G5EG62 1-961); assay: pull-down; three proteins: His6-tagged UNC-45 pre-incubated with myosin (MHC-B motor domain) 60 min 27 °C, then with Strep-UFD-2 60 min 30 °C; Strep-Tactin beads; 5 µM protein; 20 mM Tris pH 7.5, 50 mM NaCl; Coomassie; details: both partners purified
T1 construct: UNC-45, C. elegans, full-length (961 residues by the printed limits of the deletion constructs); also called UNC-45-His6; wild-type, full-length protein; source: E. coli BL21-DE3-RIL, purified (NiNTA, SEC); not shown: His6, C-terminal, kept
T1 sequence (looked up): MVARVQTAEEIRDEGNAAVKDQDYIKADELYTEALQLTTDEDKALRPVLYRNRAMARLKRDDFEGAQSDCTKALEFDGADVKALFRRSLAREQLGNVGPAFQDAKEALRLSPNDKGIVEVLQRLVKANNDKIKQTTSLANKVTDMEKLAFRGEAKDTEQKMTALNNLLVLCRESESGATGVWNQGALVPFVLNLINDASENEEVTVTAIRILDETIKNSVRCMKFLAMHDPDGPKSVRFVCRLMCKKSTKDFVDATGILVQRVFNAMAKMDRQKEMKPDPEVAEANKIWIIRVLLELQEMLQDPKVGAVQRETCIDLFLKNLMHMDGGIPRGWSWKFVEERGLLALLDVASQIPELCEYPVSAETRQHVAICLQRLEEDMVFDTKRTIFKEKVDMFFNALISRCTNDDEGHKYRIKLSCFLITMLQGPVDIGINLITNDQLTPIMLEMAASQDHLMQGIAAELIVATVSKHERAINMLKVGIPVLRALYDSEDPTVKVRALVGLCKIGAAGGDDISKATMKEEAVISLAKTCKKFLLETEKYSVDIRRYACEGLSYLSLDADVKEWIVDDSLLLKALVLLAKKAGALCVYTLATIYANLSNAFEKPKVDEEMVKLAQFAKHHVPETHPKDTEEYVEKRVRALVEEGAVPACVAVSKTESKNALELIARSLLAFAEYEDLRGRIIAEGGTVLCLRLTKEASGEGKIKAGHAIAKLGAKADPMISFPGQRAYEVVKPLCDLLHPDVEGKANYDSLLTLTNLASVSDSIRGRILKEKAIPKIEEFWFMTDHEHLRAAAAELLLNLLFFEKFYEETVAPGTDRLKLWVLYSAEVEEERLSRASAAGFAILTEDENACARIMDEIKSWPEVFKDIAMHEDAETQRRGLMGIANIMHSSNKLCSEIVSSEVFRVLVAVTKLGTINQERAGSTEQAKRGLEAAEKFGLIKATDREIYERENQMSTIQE

[2] = biological target: the molecule itself; assay: crystal structure; crystal form UNC-45_(717), space group P6_(1)22, 3.8 Å; molecules form filaments in the crystal lattice

B1: C. elegans MHC-B motor domain (1-790), His6-tagged (domain or fragment, UniProt P02566 1-790, looked up)
chain: MEHEKDPGWQYLRRTREQVLEDQSKPYDSKKNVWIPDPEEGYLAGEITATKGDQVTIVTARGNEVTLKKELVQEMNPPKFEKTEDMSNLSFLNDASVLHNLRSRYAAMLIYTYSGLFCVVINPYKRLPIYTDSCARMFMGKRKTEMPPHLFAVSDEAYRNMLQDHENQSMLITGESGAGKTENTKKVICYFAAVGASQQEGGAEVDPNKKKVTLEDQIVQTNPVLEAFGNAKTVRNNNSSRFGKFIRIHFNKHGRLASCDIEHYLLEKSRVIRQAPGERCYHIFYQIYSDFRPELKKELLLDLPIKDYWFVAQAELIIDGIDDVEEFQLTDEAFDILNFSAVEKQDCYRLMSAHMHMGNMKFKQRPREEQAEPDGTDEAEKASNMYGIGCEEFLKALTKPRVKVGTEWVSKGQNCEQVNWAVGAMAKGLYSRVFNWLVKKCNLTLDQKGIDRDYFIGVLDIAGFEIFDFNSFEQLWINFVNEKLQQFFNHHMFVLEQEEYAREGIQWVFIDFGLDLQACIELIEKPLGIISMLDEECIVPKATDLTLASKLVDQHLGKHPNFEKPKPPKGKQGEAHFAMRHYAGTVRYNCLNWLEKNKDPLNDTVVSAMKQSKGNDLLVEIWQDYTTQEEAAAKAKEGGGGGKKKGKSGSFMTVSMLYRESLNNLMTMLNKTHPHFIRCIIPNEKKQSGMIDAALVLNQLTCNGVLEGIRICRKGFPNRTLHPDFVQRYAILAAKEAKSDDDKKKCAEAIMSKLVNDGSLSEEMFRIGLTKVFFKAGVLAHLEDIRDEKL
notes: Myosin heavy chain B (MHC-B, UNC-54), C. elegans muscle myosin, motor domain residues 1-790, cloned from cDNA into pACEBac1; also called myosin; MHC-B head domain; source: High Five insect cells, purified (NiNTA, Streptactin wash fractions, SEC) or co-purified with UNC-45; not shown: His6, C-terminal, kept
B1: binds [1].

B2: UNC-45 wild type, crystallised (crystal form UNC-45_(717)) (natural protein, C. elegans, UniProt G5EG62 1-961, looked up)
chain: MVARVQTAEEIRDEGNAAVKDQDYIKADELYTEALQLTTDEDKALRPVLYRNRAMARLKRDDFEGAQSDCTKALEFDGADVKALFRRSLAREQLGNVGPAFQDAKEALRLSPNDKGIVEVLQRLVKANNDKIKQTTSLANKVTDMEKLAFRGEAKDTEQKMTALNNLLVLCRESESGATGVWNQGALVPFVLNLINDASENEEVTVTAIRILDETIKNSVRCMKFLAMHDPDGPKSVRFVCRLMCKKSTKDFVDATGILVQRVFNAMAKMDRQKEMKPDPEVAEANKIWIIRVLLELQEMLQDPKVGAVQRETCIDLFLKNLMHMDGGIPRGWSWKFVEERGLLALLDVASQIPELCEYPVSAETRQHVAICLQRLEEDMVFDTKRTIFKEKVDMFFNALISRCTNDDEGHKYRIKLSCFLITMLQGPVDIGINLITNDQLTPIMLEMAASQDHLMQGIAAELIVATVSKHERAINMLKVGIPVLRALYDSEDPTVKVRALVGLCKIGAAGGDDISKATMKEEAVISLAKTCKKFLLETEKYSVDIRRYACEGLSYLSLDADVKEWIVDDSLLLKALVLLAKKAGALCVYTLATIYANLSNAFEKPKVDEEMVKLAQFAKHHVPETHPKDTEEYVEKRVRALVEEGAVPACVAVSKTESKNALELIARSLLAFAEYEDLRGRIIAEGGTVLCLRLTKEASGEGKIKAGHAIAKLGAKADPMISFPGQRAYEVVKPLCDLLHPDVEGKANYDSLLTLTNLASVSDSIRGRILKEKAIPKIEEFWFMTDHEHLRAAAAELLLNLLFFEKFYEETVAPGTDRLKLWVLYSAEVEEERLSRASAAGFAILTEDENACARIMDEIKSWPEVFKDIAMHEDAETQRRGLMGIANIMHSSNKLCSEIVSSEVFRVLVAVTKLGTINQERAGSTEQAKRGLEAAEKFGLIKATDREIYERENQMSTIQE
notes: UNC-45, C. elegans, wild-type full-length protein used for crystallisation
B2: binds [2].
